Holding throughout (assay): EMSA
A general note: Mobility shift assays separate free from complexed probe on a gel.

Data set [1] concerns R2Bm GR/AD/A mutant GR/AD/A (double point, presumptive alpha-finger). Particulars: 3' PBM RNA; reduced 24%; with 5' PBM RNA reduced about 13%.
A further data set has as its target R2Bm protein (WT) (UniProt V9H052). As to conditions: 3' or 5' PBM RNA; reference.
Data set [2] concerns R2Bm SR/AGR/A mutant SR/AGR/A (double point, presumptive alpha-finger). As to conditions: 3' PBM RNA (upstream binding); increased up to 32%.
Data set [3] deals with R2Bm SR/AIR/A mutant SR/AIR/A (double point, presumptive alpha-finger). Particulars: 3' PBM RNA; reduced 13%; with 5' PBM RNA reduced 19-28%.

UniProt V9H052, sequence (V9H052 entry or part of it): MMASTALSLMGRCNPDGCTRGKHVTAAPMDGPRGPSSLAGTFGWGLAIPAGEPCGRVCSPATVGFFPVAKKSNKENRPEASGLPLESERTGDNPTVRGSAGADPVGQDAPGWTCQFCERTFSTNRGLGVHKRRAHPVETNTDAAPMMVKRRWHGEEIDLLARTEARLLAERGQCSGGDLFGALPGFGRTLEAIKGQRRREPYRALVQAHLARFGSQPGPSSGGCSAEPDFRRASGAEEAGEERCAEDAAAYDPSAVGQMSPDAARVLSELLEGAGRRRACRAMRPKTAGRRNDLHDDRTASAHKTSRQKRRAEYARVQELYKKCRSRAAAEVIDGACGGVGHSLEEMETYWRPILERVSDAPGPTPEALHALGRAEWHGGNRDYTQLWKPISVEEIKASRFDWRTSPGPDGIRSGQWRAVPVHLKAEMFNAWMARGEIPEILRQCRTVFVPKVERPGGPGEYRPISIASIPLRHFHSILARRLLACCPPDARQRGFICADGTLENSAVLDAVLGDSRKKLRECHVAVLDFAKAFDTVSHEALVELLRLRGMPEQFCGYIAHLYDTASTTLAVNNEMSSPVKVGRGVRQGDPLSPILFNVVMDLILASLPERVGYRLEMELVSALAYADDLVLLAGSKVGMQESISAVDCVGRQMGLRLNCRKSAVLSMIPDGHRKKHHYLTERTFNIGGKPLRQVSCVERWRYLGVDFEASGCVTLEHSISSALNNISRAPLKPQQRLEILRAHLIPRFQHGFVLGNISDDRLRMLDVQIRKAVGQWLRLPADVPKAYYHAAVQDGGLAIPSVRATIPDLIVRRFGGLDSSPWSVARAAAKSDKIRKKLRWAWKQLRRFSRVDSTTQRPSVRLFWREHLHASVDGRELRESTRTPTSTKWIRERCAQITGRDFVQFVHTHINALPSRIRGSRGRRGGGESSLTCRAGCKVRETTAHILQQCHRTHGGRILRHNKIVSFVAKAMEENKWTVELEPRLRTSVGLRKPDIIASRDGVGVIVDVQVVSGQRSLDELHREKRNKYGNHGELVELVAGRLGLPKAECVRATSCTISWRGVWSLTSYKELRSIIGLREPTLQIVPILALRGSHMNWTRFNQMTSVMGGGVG

Take linear 28S rDNA target: the binding signal (fraction of WT) in data set [1] was found to be 0.76; in the data set with R2Bm protein (WT), 1; in data set [2], 1.32; in data set [3], 0.87.

These data come from patent US20210340562.
